Target: T1, CD20+ Daudi lymphoma cells (Homo sapiens, UniProt P11836)
T1 construct: co-incubated with CD20+ Daudi lymphoma cells for 30 minutes at room temperature; endogenous in cells; host or cells: Daudi lymphoma cells
T1 sequence (P11836 1-297): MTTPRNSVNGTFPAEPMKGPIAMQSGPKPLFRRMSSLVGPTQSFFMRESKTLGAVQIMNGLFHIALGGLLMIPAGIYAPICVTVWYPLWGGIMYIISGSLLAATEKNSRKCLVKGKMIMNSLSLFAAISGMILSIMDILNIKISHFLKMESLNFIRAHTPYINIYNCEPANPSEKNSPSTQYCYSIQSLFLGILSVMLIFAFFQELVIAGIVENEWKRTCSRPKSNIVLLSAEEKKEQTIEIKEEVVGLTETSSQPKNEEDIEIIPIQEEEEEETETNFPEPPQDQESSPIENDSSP
Test: Daudi cell CD20 blocking (subsequent PE anti-human CD20 staining)
Assay type: cell-based
Settings: co-incubated with CD20+ Daudi cells 30 minutes at room temperature
Protocol: […] show blocking of CD20-positive Daudi cells with isotype control (FIG. 5A), anti-CD20 antibody (FIG. 5B), ABRAXANE® (FIG. 5C), AR160 (FIG. 5D), NTP (FIG. 5E), rituximab-bound NTP (NTRit; FIG. 5F), or rituximab alone (FIG. 5G).
ABX, AR160, Non-toxic nanoparticle (NTP) and rituximab-bound NTP were prepared as described above or previously (see, e.g., PCT Pub. No. WO2014/055415, which is incorporated herein by reference in its entirety). The nanoparticles and unlabeled rituximab were co-incubated with CD20+ Daudi lymphoma cells for 30 minutes at room temperature. The cells were washed and subsequently stained with PE anti-human CD20. Isotype (FIG. 5A) and anti-CD20 (FIG. 5B) stained cells served as negative and positive controls, respectively.

For rituximab: anti-CD20 antibody (Rituxan), which “blocking of subsequent binding of PE anti-human CD20” value is on record?
Its value is “block subsequent binding of PE anti-human CD20”.
